Data as given in US20240261333A1 (published 2024).

Assays:
Assay in all cases: co-IP with anti-FLAG, mass spectrometry; lysate of cells with N-FLAG B3GNT2
HADHA = molecular target: T1, HADHA (human, UniProt P40939 37-763)
T1 construct: also called NP_000173.2
Method: (§1) Cells were plated in 10-cm cell culture dishes and grown to 60-80% confluency. For each condition, two biological replicates were harvested for co-IP. Cells were washed with PBS and 4 mL of lysis buffer (20 mM HEPES, 1% Triton X-100, 150 mM NaCl, 1 mM EDTA, and 10% glycerol) containing protease inhibitor cocktail was added. Cells were scraped and lysate was incubated at 4° C. under rotary agitation for 1 h. Lysate was centrifuged at 14,000×g for 10 min at 4° C. Supernatant was transferred to a new tube and an aliquot was taken as the input. […] For Western blots, 10 μg/mL Chicken Anti-FLAG (Aves labs ET-DY100) and IgY control (R&D Systems AB-101-C) antibodies were biotinylated (Thermo Fisher Scientific 90407) and added to the respective conditions. Lysates with antibodies were incubated at 4° C. under rotary agitation overnight. For each mL of lysate, 50 μL of Pierce Protein A/G Magnetic Beads (Mass spectrometry; Thermo Fisher Scientific 88803) or Pierce Streptavidin Magnetic Beads (Western blot; Thermo Fisher Scientific 88817) was washed twice with lysis buffer. Lysates with antibodies were added to the beads and incubated at 4° C. under rotary agitation for 4 h. Beads were washed with lysis buffer 3 times and resuspended in lysis buffer for storage.
(§2) Magnetic beads were resuspended in 100 mM Tris pH 7.8, reduced, alkylated and digested with trypsin at 37° ° C. overnight. This solution was subjected to solid phase extraction to concentrate the peptides and remove unwanted reagents followed by injection onto a Shimadzu HPLC with fraction collector. Eight fractions were collected and after concentration were injected on a Waters NanoAcquity HPLC equipped with a self-packed Aeris 3 μm C18 analytical column 0.075 mm by 20 cm, (Phenomenex). Peptides were eluted using standard reverse-phase gradients. The effluent from the column was analyzed using a Thermo Orbitrap Elite mass spectrometer (nanospray configuration) operated in a data dependent manner for 54 minutes. The resulting fragmentation spectra were correlated against the known database using Proteome Discover 1.4 (Thermo Fisher Scientific).

IPO13 = molecular target: T2, IPO13 (human, UniProt O94829 1-963)
T2 construct: also called NP_055467.3
T2 sequence (looked up): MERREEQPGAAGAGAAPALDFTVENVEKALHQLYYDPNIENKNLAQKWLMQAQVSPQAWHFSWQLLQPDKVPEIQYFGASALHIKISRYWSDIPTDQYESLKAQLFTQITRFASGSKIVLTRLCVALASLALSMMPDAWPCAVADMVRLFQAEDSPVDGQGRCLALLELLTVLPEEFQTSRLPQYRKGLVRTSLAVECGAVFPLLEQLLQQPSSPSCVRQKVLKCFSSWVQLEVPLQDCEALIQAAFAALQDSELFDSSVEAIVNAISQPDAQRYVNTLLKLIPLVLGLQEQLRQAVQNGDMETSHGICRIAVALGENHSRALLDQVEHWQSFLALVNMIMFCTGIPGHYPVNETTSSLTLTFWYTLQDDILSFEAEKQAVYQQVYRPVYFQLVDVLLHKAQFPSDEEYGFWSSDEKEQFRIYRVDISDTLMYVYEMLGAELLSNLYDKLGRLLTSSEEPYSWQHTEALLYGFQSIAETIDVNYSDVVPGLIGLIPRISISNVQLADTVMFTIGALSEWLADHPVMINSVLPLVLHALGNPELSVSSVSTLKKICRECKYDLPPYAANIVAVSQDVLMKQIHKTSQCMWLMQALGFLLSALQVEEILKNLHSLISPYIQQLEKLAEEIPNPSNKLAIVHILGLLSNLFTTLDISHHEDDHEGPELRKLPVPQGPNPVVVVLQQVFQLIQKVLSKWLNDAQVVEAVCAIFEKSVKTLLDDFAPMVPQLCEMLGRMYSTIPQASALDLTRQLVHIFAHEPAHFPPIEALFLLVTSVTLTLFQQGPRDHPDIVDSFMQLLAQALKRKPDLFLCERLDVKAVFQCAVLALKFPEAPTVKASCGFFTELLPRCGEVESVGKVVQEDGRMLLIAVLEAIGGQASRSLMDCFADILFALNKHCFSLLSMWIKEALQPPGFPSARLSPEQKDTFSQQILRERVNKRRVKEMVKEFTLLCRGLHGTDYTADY
Method: as §1, §2

CD70 = molecular target: T3, CD70 (human, UniProt P32970 1-193)
T3 construct: also called NP_001243.1
T3 sequence (looked up): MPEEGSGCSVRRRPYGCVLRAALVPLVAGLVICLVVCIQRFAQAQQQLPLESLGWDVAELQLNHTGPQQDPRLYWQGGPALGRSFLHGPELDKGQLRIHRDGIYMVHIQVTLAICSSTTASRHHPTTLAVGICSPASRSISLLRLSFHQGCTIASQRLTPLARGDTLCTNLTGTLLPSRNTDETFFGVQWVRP
Method: as §1, §2

SDF4 = molecular target: T4, SDF4 (human, UniProt Q9BRK5 37-362)
T4 construct: also called NP_057260.2 (+2)
T4 sequence (looked up): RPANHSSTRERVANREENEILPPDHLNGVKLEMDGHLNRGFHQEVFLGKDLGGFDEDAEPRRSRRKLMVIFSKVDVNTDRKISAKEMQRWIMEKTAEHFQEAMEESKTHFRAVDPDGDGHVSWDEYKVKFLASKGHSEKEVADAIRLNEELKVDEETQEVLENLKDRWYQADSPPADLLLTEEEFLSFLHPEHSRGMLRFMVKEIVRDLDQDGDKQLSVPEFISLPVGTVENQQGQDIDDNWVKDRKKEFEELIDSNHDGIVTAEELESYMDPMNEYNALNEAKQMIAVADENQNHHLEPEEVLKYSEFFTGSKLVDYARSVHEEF
Method: as §1, §2

T1 sequence (P40939 37-763 limits assumed): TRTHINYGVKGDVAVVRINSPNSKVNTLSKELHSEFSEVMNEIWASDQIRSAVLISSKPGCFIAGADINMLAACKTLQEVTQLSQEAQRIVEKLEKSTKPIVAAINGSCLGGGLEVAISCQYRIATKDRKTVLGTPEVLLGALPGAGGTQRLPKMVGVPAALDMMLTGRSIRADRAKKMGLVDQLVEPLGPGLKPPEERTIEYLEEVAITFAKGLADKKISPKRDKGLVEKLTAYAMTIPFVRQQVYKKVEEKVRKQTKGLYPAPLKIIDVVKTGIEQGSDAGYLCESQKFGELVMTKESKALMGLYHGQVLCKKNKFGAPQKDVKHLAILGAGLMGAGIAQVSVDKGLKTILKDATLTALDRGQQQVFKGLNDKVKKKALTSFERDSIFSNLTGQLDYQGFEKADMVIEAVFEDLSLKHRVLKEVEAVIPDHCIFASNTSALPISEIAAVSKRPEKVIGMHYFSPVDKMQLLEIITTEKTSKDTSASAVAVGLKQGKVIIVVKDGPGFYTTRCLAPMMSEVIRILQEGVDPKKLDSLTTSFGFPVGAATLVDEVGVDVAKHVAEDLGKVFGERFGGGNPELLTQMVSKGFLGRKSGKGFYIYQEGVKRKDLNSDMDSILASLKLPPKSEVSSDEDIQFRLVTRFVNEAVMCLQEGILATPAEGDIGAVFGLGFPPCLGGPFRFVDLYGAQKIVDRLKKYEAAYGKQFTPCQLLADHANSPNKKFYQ

co-IP mass spectrometry count (HADHA): 0
co-IP mass spectrometry count (IPO13): 0
co-IP mass spectrometry count (CD70): 0
co-IP mass spectrometry count (SDF4): 0
B1: N-terminal FLAG tagged B3GNT2 (enzyme, human, UniProt Q9NY97 1-397, looked up)
chain: MSVGRRRIKLLGILMMANVFIYFIMEVSKSSSQEKNGKGEVIIPKEKFWKISTPPEAYWNREQEKLNRQYNPILSMLTNQTGEAGRLSNISHLNYCEPDLRVTSVVTGFNNLPDRFKDFLLYLRCRNYSLLIDQPDKCAKKPFLLLAIKSLTPHFARRQAIRESWGQESNAGNQTVVRVFLLGQTPPEDNHPDLSDMLKFESEKHQDILMWNYRDTFFNLSLKEVLFLRWVSTSCPDTEFVFKGDDDVFVNTHHILNYLNSLSKTKAKDLFIGDVIHNAGPHRDKKLKYYIPEVVYSGLYPPYAGGGGFLYSGHLALRLYHITDQVHLYPIDDVYTGMCLQKLGLVPEKHKGFRTFDIEEKNKNNICSYVDLMLVHSRKPQEMIDIWSQLQSAHLKC
notes: Bait of the co-IP; pulled down with mouse anti-FLAG (Millipore Sigma F3165) from cell lysate; also called N-FLAG B3GNT2; N-term FLAG; not shown: N-terminal FLAG tag
